The values below come from US20040018199A1.

One assay deals with Cadherin 11 (human) (UniProt P55287). The assay can be described thus: yeast two-hybrid (PathCalling).
Assay [1] deals with Prey 2832217 protein (C11orf15 protein) (human) (UniProt Q9NQ34). The assay can be described thus: yeast two-hybrid (PathCalling).
The next assay concerns the target Lumican (human) (UniProt P51884). The assay can be described thus: yeast two-hybrid (PathCalling); forty-eight independent experiments.
UniProt P51884, sequence (P51884 217-338 limits assumed, form in doubt): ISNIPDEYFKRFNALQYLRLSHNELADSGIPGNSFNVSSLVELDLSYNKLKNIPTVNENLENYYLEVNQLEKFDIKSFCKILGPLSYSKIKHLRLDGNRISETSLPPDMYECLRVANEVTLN

UniProt P55287, sequence (P55287 154-796 limits assumed, form in doubt): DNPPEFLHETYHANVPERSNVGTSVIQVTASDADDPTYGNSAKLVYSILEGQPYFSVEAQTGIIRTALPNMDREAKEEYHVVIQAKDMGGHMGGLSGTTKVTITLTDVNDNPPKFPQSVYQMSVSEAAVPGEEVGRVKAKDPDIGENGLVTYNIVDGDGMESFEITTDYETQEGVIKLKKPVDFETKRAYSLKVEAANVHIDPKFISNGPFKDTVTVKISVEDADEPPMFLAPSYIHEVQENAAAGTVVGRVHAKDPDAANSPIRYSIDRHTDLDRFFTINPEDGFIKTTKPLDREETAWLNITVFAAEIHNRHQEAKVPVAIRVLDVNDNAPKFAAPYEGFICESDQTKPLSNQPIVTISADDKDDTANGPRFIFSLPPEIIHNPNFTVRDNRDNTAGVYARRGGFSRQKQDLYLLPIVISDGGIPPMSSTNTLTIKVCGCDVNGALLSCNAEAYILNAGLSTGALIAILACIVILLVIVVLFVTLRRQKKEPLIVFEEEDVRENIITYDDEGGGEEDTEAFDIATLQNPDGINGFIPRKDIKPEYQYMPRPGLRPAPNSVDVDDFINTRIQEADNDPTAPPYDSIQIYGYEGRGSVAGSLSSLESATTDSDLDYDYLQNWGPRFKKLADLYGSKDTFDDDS
UniProt Q9NQ34, sequence (Q9NQ34 35-167 limits assumed, form in doubt): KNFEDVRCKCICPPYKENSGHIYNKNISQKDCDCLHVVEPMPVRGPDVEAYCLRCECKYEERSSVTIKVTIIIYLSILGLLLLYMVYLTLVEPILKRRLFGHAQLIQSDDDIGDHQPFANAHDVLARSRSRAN

“CG54020 (EPHA8), ephrin type-A receptor 8 (from UniProt P29322 28-207)”: the interaction rating score was 2.7 with Cadherin 11 (human), 9.6 in assay [1] and 9.99 in the assay with Lumican (human).
